Reference: patent publication US20240309109A1 (MorphoSys, published 2024)
Where a chain is given by its changes, count along the chain named.

Tests used:
[1] = target: T1, human CD38 Fc-fusion aa 45-300 (human, UniProt P28907 45-300); assay: ELISA on CD38 Fc-fusion protein, IgG format
T1 construct: Expressed in HEK293 behind a human Vkappa leader, which is left out here; also called CD38-Fc fusion protein; CD38 Fc-Fusion protein

[2] = target: T1, human CD38 Fc-fusion aa 45-300; assay: SPR (Biacore), Fab format
[3] = target: CD38 (antigen of the Bioveris affinity determination) (Homo sapiens (Human), UniProt P28907 45-300, limits assumed); assay: Bioveris, Fab format
human CD38 on cells = target: T2, human CD38 on cells (human, UniProt P28907 1-300); assay: FACS Scatchard on RPMI8226 cells
T2 construct: The cell that carried CD38 is named under assay in each row; also called CD38 on Raji, RPMI8226, OPM2, CCRF-CEM, human erythrocytes, CD38 CHO-K1 transfectants

[4] = target: T1, human CD38 Fc-fusion aa 45-300; assay: SPR (Biacore), Fab on immobilized CD38 Fc-fusion

B1: MOR06195 IgG (antibody, V domains shown)
VH: QVQLVESGGGLVQPGGSLRLSCAASGFTFSSYYMNWVRQAPGKGLEWVSAISGNGGHTYYADSVKGRFTISRDNSKNTLYLQMNSLRAEDTAVYYCARDLPLVYTGFAYWGQGTLVTVSS
VL: DIELTQPPSVSVAPGQTARISCSGDNLRHYYVYWYQQKPGQAPVLVIYGDSKRPSGIPERFSGSNSGNTATLTISGTQAEDEADYYCQTYTGGASLVFGGGTKLTVLG
notes: copies: 2 + 2
[1]
  ELISA CD38 Fc-Fusion protein (% Reactivity of MOR03087): 155%

B2: MOR06192 IgG (antibody, V domains shown)
VH: B1 VH with A50V, G53P, N54G, G56E, H57A, T58K, Y59S
VL: B1 VL
notes: copies: 2 + 2
[1]
  ELISA CD38 Fc-Fusion protein (% Reactivity of MOR03087): 111%

B3: MOR06197 IgG (antibody, V domains shown)
VH: B1 VH with G53M, N54D, G56V, H57Y, T58K
VL: B1 VL
notes: copies: 2 + 2
[1]
  ELISA CD38 Fc-Fusion protein (% Reactivity of MOR03087): 138%

B4: MOR06201 IgG (antibody, V domains shown)
VH: B1 VH with G53M, N54H, G56D, H57T
VL: B1 VL
notes: copies: 2 + 2
[1]
  ELISA CD38 Fc-Fusion protein (% Reactivity of MOR03087): 137%

B5: MOR06204 Fab (Fab, V domains shown)
VH: QVQLVESGGGLVQPGGSLRLSCAASGFTFSSYAMNWVRQAPGKGLEWVSHIRKKNTSYTTEYAASVKGRFTISRDNSKNTLYLQMNSLRAEDTAVYYCAREDGSYMTDYFAYWGQGTLVTVSS
VL: DIELTQPPSVSVAPGQTARISCSGDNIGHYYVSWYQQKPGQAPVLVIYSDSNRPSGIPERFSGSNSGNTATLTISGTQAEDEADYYCQSYNGTYVFGGGTKLTVL
notes: Fab format
[2]
  Kd: 22.7 nM
[3]
  Kd: 0.0585 nM
Human CD38 on cells
  EC50: 6.36 nM

B6: MOR06204 IgG (antibody, V domains shown)
VH: B5 VH
VL: DIELTQPPSVSVAPGQTARISCSGDNIGHYYVSWYQQKPGQAPVLVIYSDSNRPSGIPERFSGSNSGNTATLTISGTQAEDEADYYCQSYNGTYVFGGGTKLTVLG
notes: copies: 2 + 2
[1]
  ELISA CD38 Fc-Fusion protein (% Reactivity of MOR03087): 56%

B7: MOR06214 Fab (Fab, V domains shown)
VH: QVQLVESGGGLVQPGGSLRLSCAASGFTFSSYAMNWVRQAPGKGLEWVSNIQRVGSTYYADSVKGRFTISRDNSKNTLYLQMNSLRAEDTAVYYCAREDGSYMTDYFAYWGQGTLVTVSS
VL: B5 VL
notes: Fab format
[2]
  Kd: 5.26 nM
[3]
  Kd: 0.0936 nM
Human CD38 on cells
  EC50: 5.32 nM

B8: MOR06214 IgG (antibody, V domains shown)
VH: B7 VH
VL: B6 VL
notes: copies: 2 + 2
[1]
  ELISA CD38 Fc-Fusion protein (% Reactivity of MOR03087): 109%

B9: MOR03089 Fab (Fab, V domains shown)
VH: QVQLKESGPALVKPTQTLTLTCTFSGFSLSSDGMGVGWIRQPPGKALEWLALIDWDDDKRYSTSLKTRLTISKDTSKNQVVLTMTNMDPVDTATYYCARFNWFYRLAFVNPDVWGQGTLVTVSS
VL: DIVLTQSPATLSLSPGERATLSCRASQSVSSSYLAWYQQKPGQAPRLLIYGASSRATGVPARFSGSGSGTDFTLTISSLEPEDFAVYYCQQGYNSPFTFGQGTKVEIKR
notes: Fab format
[4]
  Kd: 340 nM

B10: MOR03101 Fab (Fab, V domains shown)
VH: QVQLKESGPALVKPTQTLTLTCTFSGFSLSTSRVGVSWIRQPPGKALEWLAHIDWNDDKYYSTSLKTRLTISKDTSKNQVVLTMTNMDPVDTATYYCAREDRLLGGYGYDVWGQGTLVTVSS
VL: DIELTQPPSVSVAPGQTARISCSGDSLGSYYVHWYQQKPGQAPVLVIGDDTKRPSGIPERFSGSNSGNTATLTISGTQAEDEADYYCGSRTGYNNSFVFGGGTKLTVLG
notes: Fab format
[4]
  Kd: 314 nM

B11: MOR03102 Fab (Fab, V domains shown)
VH: QVQLQESGPGLVKPGETLSLTCTVSGGSISGNYWSWIRQAPGKGLEWIGDYHGSTYYNPSLKGRVTISVDTSKNQFSLKLSSVTAEDTAVYYCAREQYHWGLAWTGFDNWGQGTLVTVSS
VL: DIELTQPPSVSVAPGQTARISCSGDNLGHYYVSWYQQKPGQAPVLVIYDDSDRPSGIPERFSGSNSGNTATLTISGTQAEDEADYYCGAYAMHMTVFGGGTKLTVLG
notes: Fab format
[4]
  Kd: 64 nM

B12: MOR03129 Fab (Fab, V domains shown)
VH: QVQLVESGGGLVQPGGSLRLSCAASGFTFSNYSMNWVRQAPGKGLEWVSYIYGGGSYTYYADSVKGRFTISRDNSKNTLYLQMNSLRAEDTAVYYCARQAGMYFDVWGQGTLVTVSS
VL: DIELTQPPSVSVAPGQTARISCSGDNLGSKVVSWYQQKPGQAPVLVIYYDNKRPSGIPERFSGSNSGNTATLTISGTQAEDEADYYCQSYTFESGSVVFGGGTKLTVLG
notes: Fab format
[4]
  Kd: 43 nM

B13: MOR03131 Fab (Fab, V domains shown)
VH: QVQLKESGPALVKPTQTLTLTCTFSGFSLSNSGVGVGWIRQPPGKALEWLADIYSDTTKRYSTSLKTRLTISKDTSKNQVVLTMTNMDPVDTATYYCARYGEAYFDYWGQGTLVTVSS
VL: DIELTQPPSVSVAPGQTARISCSGDNLGNFYVHWYQQKPGQAPVLVIYEDSNRPSGIPERFSGSNSGNTATLTISGTQAEDEADYYCSSWDMYRTIFVFGGGTKLTVLG
notes: Fab format
[4]
  Kd: 451 nM

B14: MOR06200 Fab (Fab, V domains shown)
VH: B1 VH with G53N, G56N, H57V
VL: DIELTQPPSVSVAPGQTARISCSGDNLRHYYVYWYQQKPGQAPVLVIYGDSKRPSGIPERFSGSNSGNTATLTISGTQAEDEADYYCQTYTGGASLVFGGGTKLTVL
notes: Fab format
[2]
  Kd: 7.92 nM
[3]
  Kd: 0.0599 nM
Human CD38 on cells
  EC50: 5.02 nM

B15: MOR06183 Fab (Fab, V domains shown)
VH: B1 VH with A50G, S52N, G53M, N54E, G55S, G56T, H57R, T58I
VL: B14 VL
notes: Fab format
[2]
  Kd: 13.5 nM
[3]
  Kd: 0.026 nM
Human CD38 on cells
  EC50: 28.1 nM

B16: MOR06184 Fab (Fab, V domains shown)
VH: B1 VH with G53H, N54D, G56N, H57V, T58K
VL: B14 VL
notes: Fab format
[2]
  Kd: 9.68 nM
[3]
  Kd: 0.0662 nM
Human CD38 on cells
  EC50: 4.01 nM

B17: MOR06185 Fab (Fab, V domains shown)
VH: B1 VH with G53M, G56D, H57Y, T58I, Y59S
VL: B14 VL
notes: Fab format
[2]
  Kd: 4.39 nM
[3]
  Kd: 0.0137 nM
Human CD38 on cells
  EC50: 7.3 nM

B18: MOR06186 Fab (Fab, V domains shown)
VH: B1 VH with S52N, G53L, N54S, G56S, H57A, T58K
VL: B14 VL
notes: Fab format
[2]
  Kd: 4.62 nM
[3]
  Kd: 0.00509 nM
Human CD38 on cells
  EC50: 6.47 nM

B19: MOR06187 Fab (Fab, V domains shown)
VH: B1 VH with G53S, G56D, H57I
VL: B14 VL
notes: Fab format
[2]
  Kd: 12.5 nM
[3]
  Kd: 0.0454 nM
Human CD38 on cells
  EC50: 16.9 nM

B20: MOR06188 Fab (Fab, V domains shown)
VH: B1 VH with G53T, G56W, H57Q
VL: B14 VL
notes: Fab format
[2]
  Kd: 3.96 nM
[3]
  Kd: 0.0593 nM
Human CD38 on cells
  EC50: 22.7 nM

B21: MOR06189 Fab (Fab, V domains shown)
VH: B1 VH with S52N, G53M, N54I, G56N, H57V, Y59N
VL: B14 VL
notes: Fab format
[2]
  Kd: 4.95 nM
[3]
  Kd: 0.0247 nM
Human CD38 on cells
  EC50: 9.41 nM

B22: MOR06190 Fab (Fab, V domains shown)
VH: B1 VH with A50Y, S52N, G53P, G56M, H57M, Y59N
VL: B14 VL
notes: Fab format
[2]
  Kd: 15.7 nM
[3]
  Kd: 0.0488 nM
Human CD38 on cells
  EC50: 11.7 nM

B23: MOR06192 Fab (Fab, V domains shown)
VH: B1 VH with A50V, G53P, N54G, G56E, H57A, T58K, Y59S
VL: B14 VL
notes: Fab format
[2]
  Kd: 5.01 nM
[3]
  Kd: 0.0747 nM
Human CD38 on cells
  EC50: 7.07 nM

B24: MOR06195 Fab (Fab, V domains shown)
VH: B1 VH
VL: B14 VL
notes: Fab format
[2]
  Kd: 4.52 nM
[3]
  Kd: 0.0557 nM
Human CD38 on cells
  EC50: 5.6 nM

B25: MOR06197 Fab (Fab, V domains shown)
VH: B1 VH with G53M, N54D, G56V, H57Y, T58K
VL: B14 VL
notes: Fab format
[2]
  Kd: 4.81 nM
[3]
  Kd: 0.0127 nM
Human CD38 on cells
  EC50: 6.92 nM

B26: MOR06201 Fab (Fab, V domains shown)
VH: B1 VH with G53M, N54H, G56D, H57T
VL: B14 VL
notes: Fab format
[2]
  Kd: 6.81 nM
[3]
  Kd: 0.0186 nM
Human CD38 on cells
  EC50: 9 nM

B27: MOR03085 Fab (Fab, V domains shown)
VH: QVQLVQSGAEVKKPGASVKVSCKASGYTFTGYYINWVRQAPGQGLEWMGWIFPNGGSTGYAQKFQGRVTMTRDTSISTAYMELSSLRSEDTAVYYCARGNIFIFDYWGQGTLVTVSS
VL: DIVLTQPPSVSGAPGQRVTISCSGSSSNIGNNYVSWYQQLPGTAPKLLIYGDDQRPSGVPDRFSGSKSGTSASLAITGLQSEDEADYYCQSYGTFSSFVFGGGTKLTVLG
notes: Fab format
[4]
  Kd: 122 nM

B28: MOR03086 Fab (Fab, V domains shown)
VH: QVQLVESGGGLVQPGGSLRLSCAASGFTFTSYYMHWVRQAPGKGLEWVSYIDSSGSSTYYADSVKGRFTISRDNSKNTLYLQMNSLRAEDTAVYYCARQLMPFGGYFDVWGQGTLVTVSS
VL: DIQMTQSPSSLSASVGDRVTITCRASQNISQWLNWYQQKPGKAPKLLIYGASNLQSGVPSRFSGSGSGTDFTLTISSLQPEDFATYYCQQYYDLPNTFGQGTKVEIKR
notes: Fab format
[4]
  Kd: 30 nM
